# According to US20240166750A1:
# Key:
# [1] = target: Recombinant human FcγRIIIa-V158 (human) (UniProt P08637); experiment: SPR Carterra LSA; Fc on protein AG, hFcγRIIIa-V158 analyte; 1:1 kinetic fit
# [2] = target: Recombinant human FcγRIIIa-V158 (human) (UniProt P08637); experiment: SPR Biacore T200; antibody on Protein A, FcγRIIIa-V158 analyte; 1:1 fit
# [3] = target: Recombinant human FcγRIIIa-V158 (human) (UniProt P08637); experiment: SPR Biacore T200
# [4] = target: FcγRIIIa (V158) expressed on engineered Jurkat effector cells (UniProt P08637); experiment: cell-based or functional assay
# [5] = target: Recombinant human FcγRIIIa-V158 (human) (UniProt P08637); experiment: SPR Biacore T200; antibody on Protein A, FcγRIIIa-V158 analyte; 1:1 fit; remark: listed apart in the source
# [6] = target: Recombinant human FcγRIIIa-V158 (human) (UniProt P08637); experiment: SPR Biacore T200; antibody on protein A, FcγRIIIa-V158 analyte; 1:1 kinetic fit
# [7] = target: biotinylated recombinant human FcRn (human) (UniProt P55899); experiment: FcRn affinity chromatography, pH gradient 5.5-9.5
# biotinylated recombinant human FcRn (human), sequence (P55899 24-297 limits assumed, chain 1 of 2): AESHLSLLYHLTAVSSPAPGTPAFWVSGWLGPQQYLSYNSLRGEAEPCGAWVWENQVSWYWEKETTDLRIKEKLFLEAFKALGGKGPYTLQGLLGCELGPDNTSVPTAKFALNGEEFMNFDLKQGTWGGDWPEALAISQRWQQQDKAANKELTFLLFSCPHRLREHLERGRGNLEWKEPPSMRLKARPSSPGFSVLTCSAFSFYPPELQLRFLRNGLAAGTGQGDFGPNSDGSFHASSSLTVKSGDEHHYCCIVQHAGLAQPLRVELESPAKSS
# biotinylated recombinant human FcRn (human), sequence (P61769 21-119 limits assumed, chain 2 of 2, further chain): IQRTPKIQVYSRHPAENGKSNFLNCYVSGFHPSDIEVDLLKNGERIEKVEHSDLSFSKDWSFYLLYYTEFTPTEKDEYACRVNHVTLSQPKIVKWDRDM
# [8] = target: biotinylated recombinant human FcRn (human) (UniProt P55899); experiment: SPR Biacore T200, pH 7.4; steady-state RU at 1000 nM antibody; SD 0.2 RU
# [9] = target: biotinylated recombinant human FcRn (human) (UniProt P55899); experiment: SPR Biacore T200, pH 6.0; biotin-FcRn on CAP chip, antibody analyte; bivalent fit, apparent KD; SD 240 nM
# [10] = target: biotinylated recombinant human FcRn (human) (UniProt P55899); experiment: SPR Biacore T200, pH 7.4; steady-state RU at 1000 nM antibody; SD 5.6 RU
# [11] = target: biotinylated recombinant human FcRn (human) (UniProt P55899); experiment: SPR Biacore T200, pH 6.0; biotin-FcRn on CAP chip, antibody analyte; bivalent fit, apparent KD; SD 47 nM
# [12] = target: biotinylated recombinant human FcRn (human) (UniProt P55899); experiment: SPR Biacore T200, pH 7.4; steady-state RU at 1000 nM antibody; SD 5.4 RU
# [13] = target: Recombinant human HPC4-tagged FcγRIIIa-V158 (human) (UniProt P08637); experiment: SPR Biacore T200; receptor captured by anti-HPC4, antibody analyte; steady-state RU
# [14] = target: biotinylated recombinant human FcRn (human) (UniProt P55899); experiment: SPR Biacore T200, pH 6.0; biotin-FcRn on CAP chip, antibody analyte; bivalent fit, apparent KD; SD 10 nM
# [15] = target: biotinylated recombinant human FcRn (human) (UniProt P55899); experiment: SPR Biacore T200, pH 7.4; steady-state RU at 1000 nM antibody; SD 2.1 RU
# [16] = target: biotinylated recombinant human FcRn (human) (UniProt P55899); experiment: SPR Biacore T200, pH 6.0; biotin-FcRn on CAP chip, antibody analyte; bivalent fit, apparent KD; SD 700 nM
# [17] = target: biotinylated recombinant human FcRn (human) (UniProt P55899); experiment: SPR Biacore T200, pH 6.0; biotin-FcRn on CAP chip, antibody analyte; bivalent fit, apparent KD; SD 260 nM
# [18] = target: biotinylated recombinant human FcRn (human) (UniProt P55899); experiment: SPR Biacore T200, pH 7.4; steady-state RU at 1000 nM antibody; SD 3.3 RU
substance,measurement,setting,value
"Fc fragment S298A, with kifunensine (from UniProt P01857 104-330)",Kd,[1],0.021 µM
hypergalactosylated DE (S239D/I332E) antibody specific for protein 1 (human IgG1),Kd,[2],0.008 µM
same,koff,[2],0.004 s⁻¹
same,kon,[2],480000 M⁻¹ s⁻¹
same,fold higher affinity than the unmodified DE antibody,[3],1.8 fold
afucosylated DE (S239D/I332E) antibody specific for protein 1 (human IgG1),fold increase in receptor binding compared to DE antibody,[3],3.5 fold
same,"ADCC activity (ADCC reporter gene assay), fold vs DE antibody without modification",[4],3.2 fold
same,Kd,[5],0.004 µM
same,koff,[5],0.003 s⁻¹
same,kon,[5],750000 M⁻¹ s⁻¹
DE (R292C/V302C) antibody specific for protein 5 (TPP-35708),Fold KD WT,[6],31 fold
same,Kd,[6],0.00379 µM
same,koff,[6],0.00832 s⁻¹
same,kon,[6],2.2e+06 M⁻¹ s⁻¹
DE (S239D/I332E) antibody specific for protein 1 (human IgG1),Kd,[2],0.014 µM
same,koff,[2],0.006 s⁻¹
"WT antibody specific for protein 3, without kifunensine",pH of elution,[7],7.07 pH
same,"RU (steady state, pH 7.4)",[8],0.8 RU
same,Kd,[9],2 µM
"LS antibody specific for protein 3, without kifunensine","RU (steady state, pH 7.4)",[10],19.4 RU
same,pH of elution,[7],7.84 pH
same,Kd,[11],0.534 µM
"LS antibody specific for protein 3, with kifunensine","RU (steady state, pH 7.4)",[12],16.6 RU
same,Fold Change (Kifunensine Treated vs Untreated) in FcγRIIIa Binding Affinity,[13],1.75 fold
same,Fold Change versus WT in FcγRIIIa Binding Affinity with Kifunensine Treatment,[13],1.85 fold
same,pH of elution,[7],7.81 pH
same,Kd,[14],0.658 µM
"YTE antibody specific for protein 3, with kifunensine",Fold Change (Kifunensine Treated vs Untreated) in FcγRIIIa Binding Affinity,[13],2.88 fold
same,Fold Change versus WT in FcγRIIIa Binding Affinity with Kifunensine Treatment,[13],1.26 fold
same,pH of elution,[7],7.68 pH
same,"RU (steady state, pH 7.4)",[15],9 RU
same,Kd,[9],1.21 µM
"WT antibody specific for protein 3, with kifunensine",Kd,[16],3.04 µM
same,Fold Change (Kifunensine Treated vs Untreated) in FcγRIIIa Binding Affinity,[13],1.76 fold
same,Fold Change versus WT in FcγRIIIa Binding Affinity with Kifunensine Treatment,[13],1.76 fold
same,pH of elution,[7],7.01 pH
same,"RU (steady state, pH 7.4)",[8],0.5 RU
"Fc fragment S298C, no kifunensine (from UniProt P01857 104-330)",Kd,[1],0.086 µM
"Fc fragment S298C, with kifunensine (from UniProt P01857 104-330)",Kd,[1],0.024 µM
WT antibody specific for protein 1 containing oligomannose (human IgG1),Kd,[2],0.256 µM
same,koff,[2],0.017 s⁻¹
same,kon,[2],70000 M⁻¹ s⁻¹
"YTE antibody specific for protein 3, without kifunensine",pH of elution,[7],7.74 pH
same,Kd,[17],1.27 µM
same,"RU (steady state, pH 7.4)",[18],10.7 RU
"WT antibody specific for protein 1 (human monoclonal IgG1, mAb A)",Kd,[2],0.54 µM
same,koff,[2],0.031 s⁻¹
same,kon,[2],60000 M⁻¹ s⁻¹
same,Kd,[5],0.557 µM
same,koff,[5],0.107 s⁻¹
same,kon,[5],190000 M⁻¹ s⁻¹
afucosylated antibody specific for protein 5 (Creative Biolabs),Fold KD WT,[6],8 fold
same,Kd,[6],0.0149 µM
same,koff,[6],0.00925 s⁻¹
same,kon,[6],622000 M⁻¹ s⁻¹
DE (S239D/I332E) antibody specific for protein 1 containing oligomannose (human IgG1),Kd,[2],0.006 µM
same,koff,[2],0.002 s⁻¹
same,kon,[2],400000 M⁻¹ s⁻¹
same,fold higher affinity than the unmodified DE antibody,[3],2.3 fold
same,"ADCC activity (ADCC reporter gene assay), fold vs DE antibody without modification",[4],1.4 fold
WT antibody specific for protein 5 (TPP-23424),Kd,[6],0.118 µM
"Fc fragment S298A, no kifunensine (from UniProt P01857 104-330)",Kd,[1],0.23 µM
